The source of these data is FireProtDB (doi:10.1021/bi00052a024).

The conditions of this data set: Katsuwonus pelamis, pH 7.5, 25 °C, GdnHCl, CD, Tris 20 mM, NaCl 40 mM, reversible: yes.

Cytochrome c wild type, P00025, sequence (P00025 whole entry): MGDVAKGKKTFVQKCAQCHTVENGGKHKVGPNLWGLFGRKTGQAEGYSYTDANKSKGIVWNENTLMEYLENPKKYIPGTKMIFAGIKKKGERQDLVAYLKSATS
Cytochrome c K74Y, P00025, sequence (P00025 whole entry K74Y): as the sequence (P00025 whole entry) above, with K74Y counted along it
Cytochrome c K74M, P00025, sequence (P00025 whole entry K74M): as the sequence (P00025 whole entry) above, with K74M counted along it
Cytochrome c K74W, P00025, sequence (P00025 whole entry K74W): as the sequence (P00025 whole entry) above, with K74W counted along it
Cytochrome c K74F, P00025, sequence (P00025 whole entry K74F): as the sequence (P00025 whole entry) above, with K74F counted along it

As for Cytochrome c wild type, P00025, the denaturant m value was determined as 4.87 kcal/mol/M, the “denaturant midpoint (higher = more stable)” value (from here on “denaturant midpoint”) worked out at 1.16 M and the unfolding free energy came out at 5.66 kcal/mol.

As to Cytochrome c K74W, P00025, under “structure 1CYC”, the “ddG of mutation (higher = less stable)” value was found to be 1.43 kcal/mol, the denaturant m value came to 4.16 kcal/mol/M, the “denaturant midpoint” value is 1 M and the unfolding free energy turned out to be 4.23 kcal/mol.

Consider Cytochrome c K74M, P00025, for which, where the note is “structure 1CYC”, the “ddG of mutation (higher = less stable)” value amounted to 1 kcal/mol, the denaturant m value turned out to be 4.43 kcal/mol/M, the “denaturant midpoint” value was found to be 1 M and the unfolding free energy amounted to 4.66 kcal/mol.

For the substance Cytochrome c K74F, P00025, where the note is “structure 1CYC”, the “ddG of mutation (higher = less stable)” value came to 1.15 kcal/mol, the denaturant m value was found to be 4.44 kcal/mol/M, the “denaturant midpoint” value was 1 M and the unfolding free energy was 4.51 kcal/mol.

Turning to Cytochrome c K74Y, P00025, where the note is “structure 1CYC”, the “ddG of mutation (higher = less stable)” value is 1.05 kcal/mol, the denaturant m value came out at 4.62 kcal/mol/M, the “denaturant midpoint” value came to 1 M and the unfolding free energy was 4.61 kcal/mol.
